Results taken from the supplement of paper PMC5998384.

Tests used:
HeLa Kyoto [1] = experiment: solubility in G1/S (NP-40 vs SDS abundance) (log2 ratio); higher = more soluble; settings: cell cycle stage: G1/S
HeLa Kyoto [2] = experiment: melting temperature (median over replicates), in situ; higher = more thermally stable
HeLa Kyoto [3] = experiment: solubility change mitosis vs G1/S (difference of NP-40 vs SDS log2 ratios) (log2 ratio difference); higher = more soluble in mitosis
HeLa Kyoto [4] = experiment: thermal stability score vs G1/S (z-score of summed log2 fold changes over temperatures); higher = more thermally stable than in G1/S
[5] = cell cycle stage: early G1 (4.5 h after nocodazole release)
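Wherever melting temperature (median over replicates), in situ is given: HeLa Kyoto cells synchronized by double thymidine or nocodazole block, proteins quantified by TMT10plex mass spectrometry, three independent biological replicates.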
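Wherever solubility change mitosis vs G1/S (difference of NP-40 vs SDS log2 ratios) is given: synchronized HeLa Kyoto cells (double thymidine block for G1/S, nocodazole release for mitosis), protein amounts in NP-40 versus SDS lysates quantified by mass spectrometry, three biological replicates.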
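Wherever solubility in G1/S (NP-40 vs SDS abundance) is given: HeLa Kyoto cells arrested at G1/S by double thymidine block, proteins quantified by TMT10plex mass spectrometry in mild NP-40 versus SDS extracts, three biological replicates.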
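Wherever thermal stability score vs G1/S (z-score of summed log2 fold changes over temperatures) is given: synchronized HeLa Kyoto cells, proteins quantified by TMT10plex mass spectrometry, three biological replicates, mitosis taken 0.5 h after nocodazole release, G1/S directly after double thymidine block.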

Sequence | solubility in G1/S (log2) (HeLa Kyoto [1]) | melting temperature (HeLa Kyoto [2]; cell cycle stage: G1/S) [°C] | melting temperature (HeLa Kyoto [2]; cell cycle stage: mitosis) [°C] | solubility change mitosis (log2) (HeLa Kyoto [3]) | thermal stability score (HeLa Kyoto [4]; [5]) | thermal stability score (HeLa Kyoto [4]; cell cycle stage: mitosis)
MSAPFEERSGVVPCGTPWGQWYQTLEEVFIEVQVPPGTRAQDIQCGLQSRHVALSVGGREILKGKLFDSTIADEGTWTLEDRKMVRIVLTKTKRDAANCWTSLLESEYAADPWVQDQMQRKLTLERFQKENPGFDFSGAEISGNYTKGGPDFSNLEK [NUDCD2] | 0.372 | 47.7 | 49.5 | 0.035 | 1.01 | 2.41
MSAPLDAALHALQEEQARLKMRLWDLQQLRKELGDSPKDKVPFSVPKIPLVFRGHTQQDPEVPKSLVSNLRIHCPLLAGSALITFDDPKVAEQVLQQKEHTINMEECRLRVQVQPLELPMVTTIQMSSQLSGRRVLVTGFPASLRLSEEELLDKLEIFFGKTRNGGGDVDVRELLPGSVMLGFARDGVAQRLCQIGQFTVPLGGQQVPLRVSPYVNGEIQKAEIRSQPVPRSVLVLNIPDILDGPELHDVLEIHFQKPTRGGGEVEALTVVPQGQQGLAVFTSESG [IFI35] | 0.654 | 54.6 | 55.2 | -0.0643 | -1.43 | -2.41
MSASAVYVLDLKGKVLICRNYRGDVDMSEVEHFMPILMEKEEEGMLSPILAHGGVRFMWIKHNNLYLVATSKKNACVSLVFSFLYKVVQVFSEYFKELEEESIRDNFVIIYELLDELMDFGYPQTTDSKILQEYITQEGHKLETGAPRPPATVTNAVSWRSEGIKYRKNEVFLDVIESVNLLVSANGNVLRSEIVGSIKMRVFLSGMPELRLGLNDKVLFDNTGRGKSKSVELEDVKFHQCVRLSRFENDRTISFIPPDGEFELMSYRLNTHVKPLIWIESVIEKHSHSRIEYMIKAKSQFKRRSTANNVEIHIPVPNDADSPKFKTTVGSVKWVPENSEIVWSIKSFPGGKEYLMRAHFGLPSVEAEDKEGKPPISVKFEIPYFTTSGIQVRYLKIIEKSGYQALPWVRYITQNGDYQLRTQ [AP1M1] | -0.0655 | 50.8 | 50.6 | -0.209 | -0.363 | -0.744
MSASGVLSFTQQGWEQVLAKVKRAVVYLDAACAESLHWGCGSTRLLEAVGGPDCHLREFEPDAIGGGAKQPKAVFVLSCLLKGRTVEILRDIICRSHFQYCVVVTTVSHAVHLTANHVPAAAAAEMEGQQPVFEQLEEKLCEWMGNMNYTAEVFHVPLLLAPVAPHFALTPAFASLFPLLPQDVHLLNSARPDKRKLGSLGDVDSTTLTPELLLQIRCLVSGLSSLCEHLGVREECFAVGSLSQVIAADLANYAPAKNRKKTAAGRASVVFVDRTLDLTGAVGHHGDNLVEKIISALPQLPGHTNDVMVNMIALTALHTEEENYNVVAPGCLSQSSDTTAKALWEALLNTKHKEAVMEVRRHLVEAASRENLPIKMSMGRVTPGQLMSYIQLFKNNLKALMNHCGLLQLGLATAQTLKHPQTAKWDNFLAFERLLLQSIGESAMSVVLNQLLPMIKPVTQRTNEDYSPEELLILLIYIYSVTGELTVDKDLCEAEEKVKKALAQVFCEESGLSPLLQKITDWDSSINLTFHKSKIAVDELFTSLRDIAGARSLLKQFKSVYVPGNHTHQASYKPLLKQVVEEIFHPERPDSVDIEHMSSGLTDLLKTGFSMFMKVSRPHPSDYPLLILFVVGGVTVSEVKMVKDLVASLKPGTQVIVLSTRLLKPLNIPELLFATDRLHPDLGF [SCFD2] | -0.12 | 49.8 | 49.9 | -0.0249 | -0.157 | 0.192
MSATAAARKRGKPASGAGAGAGAGKRRRKADSAGDRGKSKGGGKMNEEISSDSESESLAPRKPEEEEEEELEETAQEKKLRLAKLYLEQLRQQEEEKAEARAFEEDQVAGRLKEDVLEQRGRLQKLVAKEIQAPASADIRVLRGHQLSITCLVVTPDDSAIFSAAKDCSIIKWSVESGRKLHVIPRAKKGAEGKPPGHSSHVLCMAISSDGKYLASGDRSKLILIWEAQSCQHLYTFTGHRDAVSGLAFRRGTHQLYSTSHDRSVKVWNVAENSYVETLFGHQDAVAALDALSRECCVTAGGRDGTVRVWKIPEESQLVFYGHQGSIDCIHLINEEHMVSGADDGSVALWGLSKKRPLALQREAHGLRGEPGLEQPFWISSVAALLNTDLVATGSHSSCVRLWQCGEGFRQLDLLCDIPLVGFINSLKFSSSGDFLVAGVGQEHRLGRWWRIKEARNSVCIIPLRRVPVPPAAGS [RRP9] | -1.11 | 59.7 | 56.5 | 0.596 | -3.65 | -9.84
MSCCDLAAAGQLGKASIMASDCEPALNQAEGRNPTLERYLGALREAKNDSEQFAALLLVTKAVKAGDIDAKTRRRIFDAVGFTFPNRLLTTKEAPDGCPDHVLRALGVALLACFCSDPELAAHPQVLNKIPILSTFLTARGDPDDAARRSMIDDTYQCLTAVAGTPRGPRHLIAGGTVSALCQAYLGHGYGFDQALALLVGLLAAAETQCWKEAEPDLLAVLRGLSEDFQKAEDASKFELCQLLPLFLPPTTVPPECYRDLQAGLARILGSKLSSWQRNPALKLAARLAHACGSDWIPAGSSGSKFLALLVNLACVEVRLALEETGTEVKEDVVTACYALMELGIQECTRCEQSLLKEPQKVQLVSVMKEAIGAVIHYLLQVGSEKQKEPFVFASVRILGAWLAEETSSLRKEVCQLLPFLVRYAKTLYEEAEEANDLSQQVANLAISPTTPGPTWPGDALRLLLPGWCHLTVEDGPREILIKEGAPSLLCKYFLQQWELTSPGHDTSVLPDSVEIGLQTCCHIFLNLVVTAPGLIKRDACFTSLMNTLMTSLPALVQQQGRLLLAANVATLGLLMARLLSTSPALQGTPASRGFFAAAILFLSQSHVARATPGSDQAVLALSPEYEGIWADLQELWFLGMQAFTGCVPLLPWLAPAALRSRWPQELLQLLGSVSPNSVKPEMVAAYQGVLVELARANRLCREAMRLQAGEETASHYRMAALEQCLSEP [NCDN] | 0.191 | 49.8 | 50.2 | -0.084 | 1.7 | 2.44
MSCINLPTVLPGSPSKTRGQIQVILGPMFSGKSTELMRRVRRFQIAQYKCLVIKYAKDTRYSSSFCTHDRNTMEALPACLLRDVAQEALGVAVIGIDEGQFFPDIVEFCEAMANAGKTVIVAALDGTFQRKPFGAILNLVPLAESVVKLTAVCMECFREAAYTKRLGTEKEVEVIGGADKYHSVCRLCYFKKASGQPAGPDNKENCPVPGKPGEAVAARKLFAPQQILQCSPAN [TK1] | 0.28 | 56.1 | 57.3 | -0.138 | -4.01 | -1.09
